Patent publication US20210388105A1 (ELPISCIENCE SUZHOU BIOPHARMA, published 2021)

Key:
[1] = target: T1, human CD39 (protein; form not stated) (human, UniProt P49961 38-478, limits assumed); test: ELISA on coated ENTPD1 (CD39) protein, anti-hIgG-HRP, OD450
T1 construct: also called ENTPD1; ENTPDase 1
T1 sequence: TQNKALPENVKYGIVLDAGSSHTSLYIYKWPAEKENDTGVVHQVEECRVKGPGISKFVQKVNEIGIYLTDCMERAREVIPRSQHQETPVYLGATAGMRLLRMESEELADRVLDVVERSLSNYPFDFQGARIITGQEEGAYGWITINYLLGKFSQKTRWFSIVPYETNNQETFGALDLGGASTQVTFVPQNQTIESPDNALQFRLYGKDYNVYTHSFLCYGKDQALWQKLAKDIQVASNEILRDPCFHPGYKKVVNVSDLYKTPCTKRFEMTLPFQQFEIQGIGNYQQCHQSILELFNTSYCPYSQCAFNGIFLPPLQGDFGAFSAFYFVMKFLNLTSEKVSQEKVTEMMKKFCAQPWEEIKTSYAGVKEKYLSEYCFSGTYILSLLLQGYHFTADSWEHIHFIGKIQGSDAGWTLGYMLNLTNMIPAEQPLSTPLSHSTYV
Experimental: (§1) Binding specificity of the purified humanized antibody hu23.H5L5 against ENTPDase family members was detected by ELISA assay. Briefly, ENTPD1 (i.e. CD39) and ENTPD 2/3/5/6 proteins were coated on 96-well ELISA plates at 4° C. overnight, next day the ELISA plates were washed and blocked using blocking buffer (1% BSA in PBS with 0.05% Tween20) 200 μL/well for 2 hours. Then hu23.H5L5 gradients were duplicated into the wells and stained with anti-hIgG-HRP. After plate washing, the plates were developed with TMB substrate and stopped by 2N HCl. The OD450 were recorded using plate reader and platted by Graphpad Prism.

ENTPD3 protein = target: T2, ENTPD3 protein (Homo sapiens (Human), UniProt O75355 44-485); test: ELISA on coated ENTPD3 protein, anti-hIgG-HRP, OD450
T2 construct: also called CD39L3; ENTPDase 3
T2 sequence: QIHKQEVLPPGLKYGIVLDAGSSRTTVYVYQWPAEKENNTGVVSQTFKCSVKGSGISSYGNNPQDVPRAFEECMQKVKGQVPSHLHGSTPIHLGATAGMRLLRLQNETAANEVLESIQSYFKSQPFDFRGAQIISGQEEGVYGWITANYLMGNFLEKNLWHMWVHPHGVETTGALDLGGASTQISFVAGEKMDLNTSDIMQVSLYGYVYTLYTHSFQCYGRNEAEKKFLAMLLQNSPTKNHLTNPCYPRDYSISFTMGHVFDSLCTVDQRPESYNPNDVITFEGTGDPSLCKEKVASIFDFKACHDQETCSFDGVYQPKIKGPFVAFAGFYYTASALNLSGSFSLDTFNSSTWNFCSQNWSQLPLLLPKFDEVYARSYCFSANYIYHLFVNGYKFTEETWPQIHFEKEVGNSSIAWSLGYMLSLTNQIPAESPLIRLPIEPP
Experimental: as §1

ENTPD5 protein = target: T3, ENTPD5 protein (Homo sapiens (Human), UniProt O75356 25-428); test: ELISA on coated ENTPD5 protein, anti-hIgG-HRP, OD450
T3 construct: also called CD39L4; ENTPDase 5
T3 sequence: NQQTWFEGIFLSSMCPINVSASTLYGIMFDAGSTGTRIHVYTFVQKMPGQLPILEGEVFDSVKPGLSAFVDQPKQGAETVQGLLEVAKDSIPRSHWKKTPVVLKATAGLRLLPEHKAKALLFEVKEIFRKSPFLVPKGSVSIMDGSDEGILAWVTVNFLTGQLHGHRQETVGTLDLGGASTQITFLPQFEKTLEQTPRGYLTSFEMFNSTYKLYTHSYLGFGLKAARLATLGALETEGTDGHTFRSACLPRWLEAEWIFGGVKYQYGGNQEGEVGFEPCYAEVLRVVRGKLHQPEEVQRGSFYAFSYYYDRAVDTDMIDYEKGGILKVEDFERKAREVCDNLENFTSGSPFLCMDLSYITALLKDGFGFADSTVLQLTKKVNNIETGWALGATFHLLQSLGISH
Experimental: as §1

[2] = target: T4, human CD39 (full length, on cells) (human, UniProt P49961 1-510); test: FACS, MOLP-8 cells
T4 construct: Recombinant on CHOK1-hCD39 cells or natural on SK-MEL-28, SK-MEL-5 and MOLP-8 cells; the cell line is named under assay; also called hCD39; ENTPD1
T4 sequence: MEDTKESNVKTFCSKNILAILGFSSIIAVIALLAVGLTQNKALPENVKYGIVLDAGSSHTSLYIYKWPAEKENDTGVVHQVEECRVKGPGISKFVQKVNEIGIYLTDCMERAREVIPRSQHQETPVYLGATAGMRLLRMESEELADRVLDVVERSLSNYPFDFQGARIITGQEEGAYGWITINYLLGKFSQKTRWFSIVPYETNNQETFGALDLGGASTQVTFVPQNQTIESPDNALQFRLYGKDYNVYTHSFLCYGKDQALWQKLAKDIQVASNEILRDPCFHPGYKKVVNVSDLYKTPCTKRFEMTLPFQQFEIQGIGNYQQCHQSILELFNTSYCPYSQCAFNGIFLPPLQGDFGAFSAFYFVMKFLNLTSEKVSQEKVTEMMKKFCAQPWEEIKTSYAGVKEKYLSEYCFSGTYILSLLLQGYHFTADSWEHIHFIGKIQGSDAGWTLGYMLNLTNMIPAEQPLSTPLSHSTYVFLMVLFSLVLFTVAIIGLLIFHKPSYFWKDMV
Method in brief: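 MOLP-8 cells expressing human CD39 were incubated 30 min at 4 °C with graded concentrations of anti-CD39 antibody. Binding was detected with a fluorescent anti-mouse or anti-human IgG secondary (30 min, 4 °C) and flow cytometry. EC50 is the antibody concentration reaching 50% of the signal.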

B1: hu23.H5L5 (antibody, V domains shown)
VH: QVQLVQSGAEVKKPGASVKVSCKASGYNLKDTFLHWVRQAPGQGLEWMGRIDPANGNIKYDPKFQGRVTITADTSANTAYMELISLRSEDTAVYYCANSPYYYGSGYRIFDVWGQGTTVTVSS
VL: QIVLTQSPATLSLSPGERATLSCSAFSSVNYMHWYQQKPGQAPRLLIYTTSNLASGIPTRFSGSGSGTSYTLTISSLEPEDFAVYYCQQRSTYPFTFGQGTKLEIK
notes: humanized c23
EC50 (read off the curve) [1]: ~4 nM
binding result (ENTPD3 protein): no binding (tested: about 66 nM)
binding result (ENTPD5 protein): no binding (tested: about 66 nM)
EC50 [2]: 0.177 nM
